Reference: paper PMC10397247
One block for each binder: values may come before it.

Experiments:
zCON9_B = molecular target: T1, zCON9_B; assay: two-hybrid library CCmax;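 further: natural log of median RNA to DNA barcode read ratio; higher means stronger binding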
T1 chain: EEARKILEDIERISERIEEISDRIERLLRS

zCON9_D = molecular target: T2, zCON9_D; assay: two-hybrid library CCmax; details: mean of both orientations;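 further: natural log of median RNA to DNA barcode read ratio; higher means stronger binding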
T2 chain: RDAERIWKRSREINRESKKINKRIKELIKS

4H481-AA = molecular target: T3, 4H481-AA; assay: two-hybrid library CCmax; details: mean of both orientations;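 further: natural log of median RNA to DNA barcode read ratio; higher means stronger binding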
T3 chain: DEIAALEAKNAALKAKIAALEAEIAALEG

4H369-AA = molecular target: T4, 4H369-AA; assay: two-hybrid library CCmax; details: mean of both orientations;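 further: natural log of median RNA to DNA barcode read ratio; higher means stronger binding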
T4 chain: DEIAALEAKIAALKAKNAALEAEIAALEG

4H_APH = molecular target: T5, 4H_APH; assay: two-hybrid library CCmax; details: mean of both orientations
T5 chain: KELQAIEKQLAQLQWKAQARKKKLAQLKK

4H87-AA = molecular target: T6, 4H87-AA; assay: two-hybrid library CCmax; details: mean of both orientations
T6 chain: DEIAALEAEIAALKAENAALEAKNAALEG

4H4033-AA = molecular target: T7, 4H4033-AA; assay: two-hybrid library CCmax; details: mean of both orientations
T7 chain: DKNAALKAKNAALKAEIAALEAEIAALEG

O14-AA = molecular target: T8, O14-AA; assay: two-hybrid library CCmax; details: mean of both orientations
T8 chain: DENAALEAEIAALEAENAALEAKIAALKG

4H3664-AA = molecular target: T9, 4H3664-AA; assay: two-hybrid library CCmax; details: mean of both orientations
T9 chain: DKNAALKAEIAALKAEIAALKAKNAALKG

4H662-AA = molecular target: T10, 4H662-AA; assay: two-hybrid library CCmax; details: mean of both orientations
T10 chain: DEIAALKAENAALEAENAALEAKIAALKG

GCN2_T = assay: two-hybrid library CCmax
4H775-AA = molecular target: T11, 4H775-AA; assay: two-hybrid library CCmax; details: mean of both orientations
T11 chain: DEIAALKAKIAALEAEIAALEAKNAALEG

4H3905-AA = molecular target: T12, 4H3905-AA; assay: two-hybrid library CCmax; details: mean of both orientations
T12 chain: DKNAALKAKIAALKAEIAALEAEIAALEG

4H510-AA = molecular target: T13, 4H510-AA; assay: two-hybrid library CCmax; details: mean of both orientations
T13 chain: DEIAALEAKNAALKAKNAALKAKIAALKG

4H384-AA = molecular target: T14, 4H384-AA; assay: two-hybrid library CCmax; details: mean of both orientations
T14 chain: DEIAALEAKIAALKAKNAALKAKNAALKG

4H3625-AA = molecular target: T15, 4H3625-AA; assay: two-hybrid library CCmax
T15 chain: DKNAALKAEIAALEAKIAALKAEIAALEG

4H390-AA = molecular target: T16, 4H390-AA; assay: two-hybrid library CCmax; details: mean of both orientations
T16 chain: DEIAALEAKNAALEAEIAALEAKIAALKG

4H3940-AA = molecular target: T17, 4H3940-AA; assay: two-hybrid library CCmax; details: mean of both orientations
T17 chain: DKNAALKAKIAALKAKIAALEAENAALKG

4H451-AA = molecular target: T18, 4H451-AA; assay: two-hybrid library CCmax; details: mean of both orientations
T18 chain: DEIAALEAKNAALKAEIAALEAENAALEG

4H4038-AA = molecular target: T19, 4H4038-AA; assay: two-hybrid library CCmax; details: mean of both orientations
T19 chain: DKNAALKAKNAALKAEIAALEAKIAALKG

4H_GCN4 = assay: two-hybrid library CCmax; details: mean of both orientations
Sequence of 4H_GCN4 (chain, as listed by the source): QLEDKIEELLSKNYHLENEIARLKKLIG

4H3922-AA = molecular target: T20, 4H3922-AA; assay: two-hybrid library CCmax; details: mean of both orientations
T20 chain: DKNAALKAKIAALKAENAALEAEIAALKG

4H43-AA = molecular target: T21, 4H43-AA; assay: two-hybrid library CCmax; details: mean of both orientations
T21 chain: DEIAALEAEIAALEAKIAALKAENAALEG

4H_BCR = molecular target: T22, 4H_BCR; assay: two-hybrid library CCmax; details: mean of both orientations
T22 chain: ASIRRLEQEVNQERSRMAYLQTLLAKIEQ

O13-AA = molecular target: T23, O13-AA; assay: two-hybrid library CCmax; details: mean of both orientations
T23 chain: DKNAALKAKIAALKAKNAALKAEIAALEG

O11-AA = molecular target: T24, O11-AA; assay: two-hybrid library CCmax; details: mean of both orientations
T24 chain: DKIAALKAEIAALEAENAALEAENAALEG

4H816-AA = molecular target: T25, 4H816-AA; assay: two-hybrid library CCmax; details: mean of both orientations
T25 chain: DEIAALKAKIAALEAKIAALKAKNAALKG

4H55-AA = molecular target: T26, 4H55-AA; assay: two-hybrid library CCmax; details: mean of both orientations
T26 chain: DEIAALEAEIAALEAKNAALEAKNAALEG

4H4073-bH = molecular target: T27, 4H4073-bH; assay: two-hybrid library CCNG1
T27 chain: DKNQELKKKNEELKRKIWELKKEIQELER

4H855-bH = molecular target: T28, 4H855-bH; assay: two-hybrid library CCNG1
T28 chain: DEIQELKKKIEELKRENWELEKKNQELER

4H953-bH = molecular target: T29, 4H953-bH; assay: two-hybrid library CCNG1
T29 chain: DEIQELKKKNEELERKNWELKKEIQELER

4H780-bH = molecular target: T30, 4H780-bH; assay: two-hybrid library CCNG1
T30 chain: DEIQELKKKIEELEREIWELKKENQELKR

4H968-bH = molecular target: T31, 4H968-bH; assay: two-hybrid library CCNG1
T31 chain: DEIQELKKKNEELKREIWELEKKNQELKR

4H3855-bH = molecular target: T32, 4H3855-bH; assay: two-hybrid library CCNG1
T32 chain: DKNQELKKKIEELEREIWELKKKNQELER

4H4001-bH = molecular target: T33, 4H4001-bH; assay: two-hybrid library CCNG1
T33 chain: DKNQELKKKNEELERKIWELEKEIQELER

4H687-bH = molecular target: T34, 4H687-bH; assay: two-hybrid library CCNG1
T34 chain: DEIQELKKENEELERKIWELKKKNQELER

4H908-bH = molecular target: T35, 4H908-bH; assay: two-hybrid library CCNG1
T35 chain: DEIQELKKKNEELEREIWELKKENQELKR

4H918-bH = molecular target: T36, 4H918-bH; assay: two-hybrid library CCNG1
T36 chain: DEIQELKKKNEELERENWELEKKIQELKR

4H3782-bH = molecular target: T37, 4H3782-bH; assay: two-hybrid library CCNG1
T37 chain: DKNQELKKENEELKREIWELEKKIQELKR

4H454-bH = molecular target: T38, 4H454-bH; assay: two-hybrid library CCNG1
T38 chain: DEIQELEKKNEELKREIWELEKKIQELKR

4H967-bH = molecular target: T39, 4H967-bH; assay: two-hybrid library CCNG1
T39 chain: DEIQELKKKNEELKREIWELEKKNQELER

4H3427-bH = molecular target: T40, 4H3427-bH; assay: two-hybrid library CCNG1
T40 chain: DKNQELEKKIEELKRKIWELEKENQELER

4H683-bH = molecular target: T41, 4H683-bH; assay: two-hybrid library CCNG1
T41 chain: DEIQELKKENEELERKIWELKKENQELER

4H568-bH = molecular target: T42, 4H568-bH; assay: two-hybrid library CCNG1
T42 chain: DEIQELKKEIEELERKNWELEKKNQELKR

4H575-bH = molecular target: T43, 4H575-bH; assay: two-hybrid library CCNG1
T43 chain: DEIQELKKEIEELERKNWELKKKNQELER

4H72-bH = molecular target: T44, 4H72-bH; assay: two-hybrid library CCNG1
T44 chain: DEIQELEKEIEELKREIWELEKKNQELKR

4H457-bH = molecular target: T45, 4H457-bH; assay: two-hybrid library CCNG1
T45 chain: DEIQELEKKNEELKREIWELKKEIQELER

4H3926-bH = molecular target: T46, 4H3926-bH; assay: two-hybrid library CCNG1
T46 chain: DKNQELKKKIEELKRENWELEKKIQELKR

4H780-bN = molecular target: T47, 4H780-bN; assay: two-hybrid library CCNG1
T47 chain: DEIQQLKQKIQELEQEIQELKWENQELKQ

4H607-bH = molecular target: T48, 4H607-bH; assay: two-hybrid library CCNG1
T48 chain: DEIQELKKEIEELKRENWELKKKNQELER

4H797-bH = molecular target: T49, 4H797-bH; assay: two-hybrid library CCNG1
T49 chain: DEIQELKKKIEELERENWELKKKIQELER

4H754-bH = molecular target: T50, 4H754-bH; assay: two-hybrid library CCNG1
T50 chain: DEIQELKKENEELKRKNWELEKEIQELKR

4H883-bH = molecular target: T51, 4H883-bH; assay: two-hybrid library CCNG1
T51 chain: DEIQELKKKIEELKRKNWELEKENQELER

4H717-bH = molecular target: T52, 4H717-bH; assay: two-hybrid library CCNG1
T52 chain: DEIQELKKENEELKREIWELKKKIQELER

4H346-bH = molecular target: T53, 4H346-bH; assay: two-hybrid library CCNG1
T53 chain: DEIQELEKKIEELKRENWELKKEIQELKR

interaction score (zCON9_B): 2 | interaction score (zCON9_D): -1.44
Binder: EEARKILEDIERISERIEEISDRIERLLRS [zCON9_B]

interaction score (4H481-AA): -0.502 | interaction score (4H369-AA): -0.703 | interaction score (4H_APH): -1.59 | interaction score (4H87-AA): -0.904 | interaction score (4H4033-AA): -0.401 | interaction score (O14-AA): 1.44 | interaction score (4H3664-AA): -0.0768 | interaction score (4H662-AA): -1.3 | interaction score (GCN2_T): -0.674 | interaction score (4H775-AA): 0.881 | interaction score (4H3905-AA): 2.29 | interaction score (4H510-AA): -1.93 | interaction score (4H384-AA): -1.24 | interaction score (4H3625-AA): 2.27 | interaction score (4H390-AA): 1.54 | interaction score (4H3940-AA): -0.199 | interaction score (4H451-AA): -1.64 | interaction score (4H4038-AA): 1.61 | interaction score (4H_GCN4): -0.702 | interaction score (4H3922-AA): 0.185 | interaction score (4H43-AA): 1.85 | interaction score (4H_BCR): -1.17 | interaction score (O13-AA): -1.47 | interaction score (O11-AA): -1.53 | interaction score (4H816-AA): 1.38 | interaction score (4H55-AA): -1.29
Binder: DKNAALKAEIAALEAKIAALKAEIAALEG [4H3625-AA]

interaction score (4H4073-bH): 0.194 | interaction score (4H855-bH): -0.0661 | interaction score (4H953-bH): -2.3 | interaction score (4H780-bH): 0.188 | interaction score (4H968-bH): -0.828 | interaction score (4H3855-bH): 0.0459 | interaction score (4H4001-bH): 0.717 | interaction score (4H687-bH): -0.309 | interaction score (4H908-bH): -0.797 | interaction score (4H918-bH): -0.345 | interaction score (4H3782-bH): -0.106 | interaction score (4H454-bH): -0.546 | interaction score (4H967-bH): -1.41 | interaction score (4H3427-bH): 1.13 | interaction score (4H683-bH): -0.937 | interaction score (4H568-bH): -1.66 | interaction score (4H575-bH): 1.53 | interaction score (4H72-bH): -0.0186 | interaction score (4H457-bH): -0.153 | interaction score (4H3926-bH): -0.169 | interaction score (4H780-bN): -0.425 | interaction score (4H607-bH): -1.37 | interaction score (4H797-bH): -0.726 | interaction score (4H754-bH): -0.851 | interaction score (4H883-bH): -1.42 | interaction score (4H717-bH): -0.417 | interaction score (4H346-bH): -1.08
Binder: DKNQELEKKIEELKRKIWELEKENQELER [4H3427-bH]
